B1: 22056 (protein)
chain: MALPVTALLLPLALLLHAARPQLQLQESGPGLVKPSETLSLTCTVSGDSISSGDYYWGWIRQPPGKGLEWIGHIYYSGVTYYNPSLKSRVTISVDTSRNQFSLKLSSVTAADTAVYYCTREDSSNWRSRGQGTLVTVSSLEGSPIKTDVITMDPKDNCSKDANDTLLLQLTNTSAYYMYLLLLLKSVVYFAIITCCLLRRTAFCCNGEKSRAKRSGSGATNFSLLKQAGDVEENPGPTSMDWIWRILFLVGAATGAHSFEVQLVESGGGVVQPGRSLRLSCAASGFSFSGYGMHWVRQAPGKGLEWVAYISYDGSNKYYADSVKGRFTISRDNSKNTLYLQMNSLRAEDTAVYYCAKDPAWGLRLGESSSYDFDIWGQGTMVTVSSTRDKTHTCPPCPAGRADCGFTSESYQQGVLSATILYEILLGKATLYAVLVSALVLMAMVKRKDFRAKRSGSGATNFSLLKQAGDVEENPGPSRGHMTEYKPTVRLATRDDVPRAVRTLAAAFADYPATRHTVDPDRHIERVTELQELFLTRVGLDIGKVWVADDGAAVAVWTTPESVEAGAVFAEIGPRMAELSGSRLAAQQQMEGLLAPHRPKEPAWFLATVGVSPDHQGKGLGSAVVLPGVEAAERAGVPAFLETSAPRNLPFYERLGFTVTADVEVPEGPRTWCMTRKPGA
B2: 22097 (protein)
chain: MALPVTALLLPLALLLHAARPQLQLQESGPGLVKPSETLSLTCTVSGDSISSGDYYWGWIRQPPGKGLEWIGHIYYSGVTYYNPSLKSRVTISVDTSRNQFSLKLSSVTAADTAVYYCTREDSSNWRSRGQGTLVTVSSLEGQPKANPTVTLFPPSSEELQANKATLVCLISDFYPGAVTVAWKADGSPVKAGVETTKPSKQSNNKYAASSYLSLTPEQWKSHRSYSCQVTHEGSTVEKTVAPTECSGRADCGFTSESYQQGVLSATILYEILLGKATLYAVLVSALVLMAMVKRKDSRGRAKRSGSGATNFSLLKQAGDVEENPGPTSMDWIWRILFLVGAATGAHSFEVQLLESGGGLIQPGGSLRLSCAASGFTFSSHAMTWVRQAPGKGLEWVSAISGSGDYTHYADSVKGRFTISRDNSKNTVYLQMNSLRAEDSAVYYCAKDEDGGSLLGHRGQGTLVTVSSTRASTKGPSVFPLAPSSKSTSGGTAALGCLVKDYFPEPVTVSWNSGALTSGVHTFPAVLQSSGLYSLSSVVTVPSSSLGTQTYICNVNHKPSNTKVDKRVEPKSCIPEDTFFPSPESSCDVKLVEKSFETDTNLNFQNLSVIGFRILLLKVAGFNLLMTLRLWSSRAKRSGSGVKQTLNFDLLKLAGDVESNPGPSRGHMTEYKPTVRLATRDDVPRAVRTLAAAFADYPATRHTVDPDRHIERVTELQELFLTRVGLDIGKVWVADDGAAVAVWTTPESVEAGAVFAEIGPRMAELSGSRLAAQQQMEGLLAPHRPKEPAWFLATVGVSPDHQGKGLGSAVVLPGVEAAERAGVPAFLETSAPRNLPFYERLGFTVTADVEVPEGPRTWCMTRKPGA
B3: 22200 (protein)
chain: MTIRLLCYMGFYFLGAGLMEADIYQTPRYLVIGTGKKITLECSQTMGHDKMYWYQQDPGMELHLIHYSYGVNSTEKGDLSSESTVSRIRTEHFPLTLESARPSHTSQYLCASSEARGLAEFTDTQYFGPGTRLTVLEDLKNVFPPEVAVFEPSEAEISHTQKATLVCLATGFYPDHVELSWWVNGKEVHSGVCTDPQPLKEQPALNDSRYCLSSRLRVSATFWQNPRNHFRCQVQFYGLSENDEWTQDRAKPVTQIVSAEAWGRADCGFTSESYQQGVLSATILYEILLGKATLYAVLVSALVLMAMVKRKDSRGRAKRSGSGATNFSLLKQAGDVEENPGPTSATMDWIWRILFLVGAATGAHSGPQVQLQESGGGLAQAGGSLRLSCAASGRTFSMGWFRQAPGKEREFVAAITYSGGSPYYASSVRGRFTISRDNAKNTVYLQMNSLKPEDTAVYYCAANPTYGSDWNAENWGQGTQVTVSSGSGGGGSGGGGSGGGGSFEAQTVTQSQPEMSVQEAETVTLSCTYDTSESDYYLFWYKQPPSRQMILVIRQEAYKQQNATENRFSVNFQKAAKSFSLKISDSQLGDAAMYFCAYRSAVNARLMFGDGTQLVVKPNTRIQNPDPAVYQLRDSKSSDKSVCLFTDFDSQTNVSQSKDSDVYITDKCVLDMRSMDFKSNSAVAWSNKSDFACANAFNNSIIPEDTFFPSPESSCDVKLVEKSFETDTNLNFQNLSVIGFRILLLKVAGFNLLMTLRLWSSRAKRSGSGVKQTLNFDLLKLAGDVESNPGPSRGHMTEYKPTVRLATRDDVPRAVRTLAAAFADYPATRHTVDPDRHIERVTELQELFLTRVGLDIGKVWVADDGAAVAVWTTPESVEAGAVFAEIGPRMAELSGSRLAAQQQMEGLLAPHRPKEPAWFLATVGVSPDHQGKGLGSAVVLPGVEAAERAGVPAFLETSAPRNLPFYERLGFTVTADVEVPEGPRTWCMTRKPGA
B4: 22033 (protein)
chain: MALPVTALLLPLALLLHAARPQLQLQESGPGLVKPSETLSLTCTVSGDSISSGDYYWGWIRQPPGKGLEWIGHIYYSGVTYYNPSLKSRVTISVDTSRNQFSLKLSSVTAADTAVYYCTREDSSNWRSRGQGTLVTVSSLEDKTHTCPPCPAEVKTDSTDHVKPKETENTKQPSKSCHKPKAIVHTEKVNMMSLTVLGLRMLFAKTVAVNFLLTAKLFFLRAKRSGSGVKQTLNFDLLKLAGDVESNPGPTSMDWIWRILFLVGAATGAHSFEVQLVESGGGVVQPGRSLRLSCAASGFSFSGYGMHWVRQAPGKGLEWVAYISYDGSNKYYADSVKGRFTISRDNSKNTLYLQMNSLRAEDTAVYYCAKDPAWGLRLGESSSYDFDIWGQGTMVTVSSTRIQNPDPAVYQLRDSKSSDKSVCLFTDFDSQTNVSQSKDSDVYITDKCVLDMRSMDFKSNSAVAWSNKSDFACANAFNNSIIPEDTFFPSPESSCDVKLVEKSFETDTNLNFQNLSVIGFRILLLKVAGFNLLMTLRLWSSRAKRSGSGVKQTLNFDLLKLAGDVESNPGPSRGHMTEYKPTVRLATRDDVPRAVRTLAAAFADYPATRHTVDPDRHIERVTELQELFLTRVGLDIGKVWVADDGAAVAVWTTPESVEAGAVFAEIGPRMAELSGSRLAAQQQMEGLLAPHRPKEPAWFLATVGVSPDHQGKGLGSAVVLPGVEAAERAGVPAFLETSAPRNLPFYERLGFTVTADVEVPEGPRTWCMTRKPGA
B5: 22080 (protein)
chain: MALPVTALLLPLALLLHAARPQLQLQESGPGLVKPSETLSLTCTVSGDSISSGDYYWGWIRQPPGKGLEWIGHIYYSGVTYYNPSLKSRVTISVDTSRNQFSLKLSSVTAADTAVYYCTREDSSNWRSRGQGTLVTVSSLESGGGGSFEEVQLLESGGGLVQPGGSLRLSCAASGFTFSSYAMSWVRQAPGKGLEWVSSISGSGDYIYYADSVKGRFTISRDISKNTLYLQMNSLRAEDTAVYYCAKEGTGANSSLADYRGQGTLVTVSSTRASTKGPSVFPLAPSSKSTSGGTAALGCLVKDYFPEPVTVSWNSGALTSGVHTFPAVLQSSGLYSLSSVVTVPSSSLGTQTYICNVNHKPSNTKVDKRVEPKSCIPEDTFFPSPESSCDVKLVEKSFETDTNLNFQNLSVIGFRILLLKVAGFNLLMTLRLWSSRAKRSGSGVKQTLNFDLLKLAGDVESNPGPSRGHMTEYKPTVRLATRDDVPRAVRTLAAAFADYPATRHTVDPDRHIERVTELQELFLTRVGLDIGKVWVADDGAAVAVWTTPESVEAGAVFAEIGPRMAELSGSRLAAQQQMEGLLAPHRPKEPAWFLATVGVSPDHQGKGLGSAVVLPGVEAAERAGVPAFLETSAPRNLPFYERLGFTVTADVEVPEGPRTWCMTRKPGA
B6: 22069 (protein)
chain: MALPVTALLLPLALLLHAARPQLQLQESGPGLVKPSETLSLTCTVSGDSISSGDYYWGWIRQPPGKGLEWIGHIYYSGVTYYNPSLKSRVTISVDTSRNQFSLKLSSVTAADTAVYYCTREDSSNWRSRGQGTLVTVSSLEGGGGSGGGGSGGGGSVEIQNPDPAVYQLRDSKSSDKSVCLFTDFDSQTNVSQSKDSDVYITDKCVLDMRSMDFKSNSAVAWSNKSDFACANAFNNSIIPEDTFFPSPESSCDVKLVEKSFETDTNLNFQNLSVIGFRILLLKVAGFNLLMTLRLWSSSSRAKRSGSGVKQTLNFDLLKLAGDVESNPGPTSMDWIWRILFLVGAATGAHSFEVQLLESGGGLIQPGGSLRLSCAASGFTFSSHAMTWVRQAPGKGLEWVSAISGSGDYTHYADSVKGRFTISRDNSKNTVYLQMNSLRAEDSAVYYCAKDEDGGSLLGHRGQGTLVTVSSTRIQNPDPAVYQLRDSKSSDKSVCLFTDFDSQTNVSQSKDSDVYITDKCVLDMRSMDFKSNSAVAWSNKSDFACANAFNNSIIPEDTFFPSPESSCDVKLVEKSFETDTNLNFQNLSVIGFRILLLKVAGFNLLMTLRLWSSRAKRSGSGVKQTLNFDLLKLAGDVESNPGPSRGHMTEYKPTVRLATRDDVPRAVRTLAAAFADYPATRHTVDPDRHIERVTELQELFLTRVGLDIGKVWVADDGAAVAVWTTPESVEAGAVFAEIGPRMAELSGSRLAAQQQMEGLLAPHRPKEPAWFLATVGVSPDHQGKGLGSAVVLPGVEAAERAGVPAFLETSAPRNLPFYERLGFTVTADVEVPEGPRTWCMTRKPGA
B7: 22082 (protein)
chain: MALPVTALLLPLALLLHAARPQLQLQESGPGLVKPSETLSLTCTVSGDSISSGDYYWGWIRQPPGKGLEWIGHIYYSGVTYYNPSLKSRVTISVDTSRNQFSLKLSSVTAADTAVYYCTREDSSNWRSRGQGTLVTVSSLESGGGGSFEQLQLQESGPGLVKPSETLSLTCTVSGGSISSGDYYWGWIRQPPGKGLEWIGHIYYSGATYYNPSLKSRVTISVDTSRNQFSLKLSSVTAADTAVYYCTRDDSSNWRSRGQGTLVTVSSTRASTKGPSVFPLAPSSKSTSGGTAALGCLVKDYFPEPVTVSWNSGALTSGVHTFPAVLQSSGLYSLSSVVTVPSSSLGTQTYICNVNHKPSNTKVDKRVEPKSCIPEDTFFPSPESSCDVKLVEKSFETDTNLNFQNLSVIGFRILLLKVAGFNLLMTLRLWSSRAKRSGSGVKQTLNFDLLKLAGDVESNPGPSRGHMTEYKPTVRLATRDDVPRAVRTLAAAFADYPATRHTVDPDRHIERVTELQELFLTRVGLDIGKVWVADDGAAVAVWTTPESVEAGAVFAEIGPRMAELSGSRLAAQQQMEGLLAPHRPKEPAWFLATVGVSPDHQGKGLGSAVVLPGVEAAERAGVPAFLETSAPRNLPFYERLGFTVTADVEVPEGPRTWCMTRKPGA

Tested on: RAJI cells
Assay: JNG assay, co-culture with RAJI cells
Assay type: cell-based
Conditions: JNG cells expressing construct, co-culture with Raji
Outline: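 Jurkat-NFAT-GFP (JNG) cells stably expressing SAR constructs via lentiviral transduction and puromycin/blasticidin selection were cocultured with target cells at E:T ~1:2 for ~4–18 h. NFAT-driven GFP was measured by FACS versus parental JNG cells; scores +/- to 5+ denote ~5–50% GFP-positive cells.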

Q: With B1 as the molecule, how does the “NFAT-GFP ASSAY: Raji” value read?
A: The value was “+/- (refer to approximately 5%, 10%, 20%, 30%, 40% and 50% GFP positive cells)”.

Q: B2 was tested. Which “NFAT-GFP ASSAY: Raji” value did it give?
A: The value was “+ (refer to approximately 5%, 10%, 20%, 30%, 40% and 50% GFP positive cells)”.

Q: For B3, which “NFAT-GFP ASSAY: Raji” value is on record?
A: The value was “+ (refer to approximately 5%, 10%, 20%, 30%, 40% and 50% GFP positive cells)”.

Q: For B4, which “NFAT-GFP ASSAY: Raji” value is on record?
A: The value was “+/- (refer to approximately 5%, 10%, 20%, 30%, 40% and 50% GFP positive cells)”.

Q: B5 was tested. Which “NFAT-GFP ASSAY: Raji” value did it give?
A: The value was “+ (refer to approximately 5%, 10%, 20%, 30%, 40% and 50% GFP positive cells)”.

Q: How did the “NFAT-GFP ASSAY: Raji” value turn out when B6 was run?
A: Its value is “+ (refer to approximately 5%, 10%, 20%, 30%, 40% and 50% GFP positive cells)”.

Q: With B7 as the molecule, how does the “NFAT-GFP ASSAY: Raji” value read?
A: The value was “+/- (refer to approximately 5%, 10%, 20%, 30%, 40% and 50% GFP positive cells)”.

Reference: US20230212319A1, “NOVEL ANTIGEN BINDING DOMAINS AND SYNTHETIC ANTIGEN RECEPTORS INCORPORATING THE SAME” (University of Southern California, priority 2020, published 2023)
